In patent publication EP4653869A1 (Nantes Université, dated 2025):

T1: recombinant human interleukin-34 (IL-34) (human, UniProt Q6ZMJ4 21-242)
T1 construct: Bought recombinant protein; also called hIL34
T1 sequence (looked up): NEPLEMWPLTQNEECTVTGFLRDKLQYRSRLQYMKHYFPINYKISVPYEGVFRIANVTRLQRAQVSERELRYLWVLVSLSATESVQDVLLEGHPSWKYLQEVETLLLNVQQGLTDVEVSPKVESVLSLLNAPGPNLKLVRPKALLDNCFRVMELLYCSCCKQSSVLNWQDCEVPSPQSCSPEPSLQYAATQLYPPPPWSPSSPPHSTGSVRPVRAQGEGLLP

B1: recombinant human bone morphogenetic protein 7 (BMP-7) (ligand, UniProt P18075 293-431, looked up)
chain: STGSKQRSQNRSKTPKNQEALRMANVAENSSSDQRQACKKHELYVSFRDLGWQDWIIAPEGYAAYYCEGECAFPLNSYMNATNHAIVQTLVHFINPETVPKPCCAPTQLNAISVLYFDDSSNVILKKYRNMVVRACGCH
notes: Immobilized on a CM5 chip by amine coupling in the SPR assay
B2: recombinant human bone morphogenetic protein 2 (BMP-2) (ligand, UniProt P12643 283-396, looked up)
chain: QAKHKQRKRLKSSCKRHPLYVDFSDVGWNDWIVAPPGYHAFYCHGECPFPLADHLNSTNHAIVQTLVNSVNSKIPKACCVPTELSAISMLYLDENEKVVLKNYQDMVVEGCGCR
notes: as for B1
B3: recombinant human bone morphogenetic protein 4 (BMP-4) (ligand, UniProt P12644 293-408, looked up)
chain: SPKHHSQRARKKNKNCRRHSLYVDFSDVGWNDWIVAPPGYQAFYCHGDCPFPLADHLNSTNHAIVQTLVNSVNSSIPKACCVPTELSAISMLYLDEYDKVVLKNYQEMVVEGCGCR
notes: as for B1

Target: T1, recombinant human interleukin-34 (IL-34)
Assay: SPR (Biacore T200), BMP immobilized on CM5 chip, IL-34 as analyte, single cycle titration, bivalent fitting model

| Binder | Kd [nM] | koff [s⁻¹] | kon [M⁻¹ s⁻¹] |
| --- | --- | --- | --- |
| B1 | 922 | 0.0561 | 60800 |
| B2 | 363 | 0.0229 | 63100 |
| B3 | 426 | 0.0467 | 110000 |
